Source: the Immune Epitope Database (IEDB)

How the values were obtained:
HLA-C*15:02 = test: IEDB peptide-MHC binding, purified MHC/direct/fluorescence; filed as Kd, often an IC50 or EC50 that approximates it; ≥ and ≤ were set here for values at or beyond the usual limits of such assays
HLA-B*07:02 [1] = test: IEDB peptide-MHC binding, purified MHC/competitive/fluorescence; ≥ and ≤ were set here for values at or beyond the usual limits of such assays
HLA-B*39:01 = test: IEDB peptide-MHC binding, purified MHC/competitive/fluorescence; filed as Kd, often an IC50 or EC50 that approximates it; ≥ and ≤ were set here for values at or beyond the usual limits of such assays
HLA-A*11:01 [2] = test: IEDB peptide-MHC binding, purified MHC/competitive/fluorescence; ≥ and ≤ were set here for values at or beyond the usual limits of such assays; conditions: source organism: Zaire ebolavirus
HLA-B*08:01 [3] = test: as above
HLA-A*03:01 [4] = test: as above
HLA-A*01:01 [5] = test: IEDB peptide-MHC binding, purified MHC/direct/fluorescence; filed as Kd, often an IC50 or EC50 that approximates it; ≥ and ≤ were set here for values at or beyond the usual limits of such assays
HLA-A*11:01 [6] = test: as above
HLA-B*07:02 [7] = test: as above
HLA-B*40:01 = test: as above
HLA-A*30:01 = test: as above
HLA-B*15:01 [8] = test: as above
HLA-B*08:01 [9] = test: as above
HLA-A*02:01 [10] = test: as above
HLA-B*27:05 = test: as above
HLA-B*58:01 [11] = test: as above
HLA-A*26:01 [12] = test: as above
HLA-A*31:01 = test: as above
HLA-A*24:03 [13] = test: as above
HLA-A*69:01 [14] = test: as above
HLA-A*03:01 [15] = test: as above
HLA-B*58:01 [16] = test: IEDB peptide-MHC binding, purified MHC/competitive/fluorescence; filed as Kd, often an IC50 or EC50 that approximates it; ≥ and ≤ were set here for values at or beyond the usual limits of such assays
HLA-B*44:02 = test: IEDB peptide-MHC binding, purified MHC/direct/fluorescence; filed as Kd, often an IC50 or EC50 that approximates it; ≥ and ≤ were set here for values at or beyond the usual limits of such assays
HLA-A*02:01 [17] = test: IEDB peptide-MHC binding, purified MHC/competitive/fluorescence; ≥ and ≤ were set here for values at or beyond the usual limits of such assays; conditions: source organism: Zaire ebolavirus
HLA-A*24:02 = test: as above; conditions: source organism: Zaire ebolavirus
HLA-A*24:03 [18] = test: IEDB peptide-MHC binding, purified MHC/competitive/fluorescence; filed as Kd, often an IC50 or EC50 that approximates it; ≥ and ≤ were set here for values at or beyond the usual limits of such assays
HLA-B*15:01 [19] = test: IEDB peptide-MHC binding, purified MHC/competitive/fluorescence; ≥ and ≤ were set here for values at or beyond the usual limits of such assays
HLA-B*51:01 = test: IEDB peptide-MHC binding, purified MHC/competitive/fluorescence; filed as Kd, often an IC50 or EC50 that approximates it; ≥ and ≤ were set here for values at or beyond the usual limits of such assays
HLA-A*01:01 [20] = test: as above; conditions: source organism: Escherichia coli B171
HLA-B*15:01 [21] = test: as above
HLA-A*03:01 [22] = test: as above; conditions: source organism: Escherichia coli B171
HLA-C*05:01 = test: IEDB peptide-MHC binding, purified MHC/direct/fluorescence; filed as Kd, often an IC50 or EC50 that approximates it; ≥ and ≤ were set here for values at or beyond the usual limits of such assays
HLA-B*46:01 [23] = test: as above; conditions: source organism: Giardia lamblia ATCC 50803
HLA-B*18:01 = test: IEDB peptide-MHC binding, purified MHC/competitive/fluorescence; filed as Kd, often an IC50 or EC50 that approximates it; ≥ and ≤ were set here for values at or beyond the usual limits of such assays; conditions: source organism: Homo sapiens
HLA-B*57:01 = test: as above; conditions: source organism: Homo sapiens
HLA-A*26:01 [24] = test: as above; conditions: source organism: Homo sapiens
HLA-A*69:01 [25] = test: as above; conditions: source organism: Homo sapiens
HLA-B*46:01 [26] = test: as above; conditions: source organism: Homo sapiens
HLA-B*27:03 = test: as above; conditions: source organism: Homo sapiens
[27] = source organism: Zaire ebolavirus
[28] = source organism: Escherichia coli str. K-12 substr. MG1655
[29] = source organism: Pseudomonas aeruginosa
[30] = source organism: Pseudomonas aeruginosa UCBPP-PA14
[31] = source organism: Escherichia coli O157:H7
[32] = source organism: Coxiella burnetii
[33] = source organism: Bacillus anthracis str. A2012
[34] = source organism: Campylobacter jejuni RM1221
[35] = source organism: Campylobacter jejuni
[36] = source organism: Escherichia coli B171
[37] = source organism: Giardia lamblia ATCC 50803
[38] = source organism: Vaccinia virus Copenhagen

Sequence: NAFHHPSAV
- Kd (HLA-C*15:02; source organism: Homo sapiens): 0.695 µM

Sequence: NTPVYKLDI
- IC50 (HLA-B*07:02 [1]; [27]): ≥ 119 µM

Sequence: AKIEAPLLL
- Kd (HLA-C*15:02; [28]): ≥ 20 µM
- Kd (HLA-B*39:01; [28]): 0.0075 µM

Sequence: LHPLARTAK
- IC50 (HLA-A*11:01 [2]): 15.4 µM
- IC50 (HLA-B*07:02 [1]; [27]): ≥ 158 µM
- IC50 (HLA-B*08:01 [3]; [27]): ≥ 277 µM
- IC50 (HLA-A*03:01 [4]; [27]): 34.6 µM

Sequence: YTFCRLNVK
- Kd (HLA-A*01:01 [5]; [29]): 2.36 µM
- Kd (HLA-A*11:01 [6]; [29]): 0.0487 µM
- Kd (HLA-B*07:02 [7]; [30]): ≥ 20 µM
- Kd (HLA-B*40:01; [30]): ≥ 20 µM
- Kd (HLA-A*30:01; [29]): 0.0138 µM
- Kd (HLA-B*15:01 [8]; [30]): ≥ 20 µM
- Kd (HLA-B*08:01 [9]; [29]): 10.6 µM
- Kd (HLA-A*02:01 [10]; [29]): 11.5 µM
- Kd (HLA-B*27:05; [30]): ≥ 20 µM
- Kd (HLA-B*58:01 [11]; [30]): ≥ 20 µM
- Kd (HLA-A*26:01 [12]; [30]): ≥ 20 µM
- Kd (HLA-A*31:01; [29]): 0.265 µM
- Kd (HLA-A*24:03 [13]; [30]): ≥ 20 µM
- Kd (HLA-A*69:01 [14]; [30]): ≥ 20 µM
- Kd (HLA-A*03:01 [15]; [29]): 0.213 µM

Sequence: EKVQRQIQV
- IC50 (HLA-B*08:01 [3]; [27]): ≥ 181 µM

Sequence: IQARPCDRW
- Kd (HLA-B*58:01 [16]; source organism: Escherichia coli 536): 0.19 µM

Sequence: GITGGHIPK
- Kd (HLA-A*01:01 [5]; [31]): ≥ 20 µM
- Kd (HLA-A*11:01 [6]; [31]): 0.101 µM
- Kd (HLA-B*07:02 [7]; [31]): ≥ 20 µM
- Kd (HLA-B*40:01; [31]): ≥ 20 µM
- Kd (HLA-A*30:01; [31]): 0.0722 µM
- Kd (HLA-B*15:01 [8]; [31]): ≥ 20 µM
- Kd (HLA-B*08:01 [9]; [31]): ≥ 20 µM
- Kd (HLA-A*02:01 [10]; [31]): ≥ 20 µM
- Kd (HLA-B*27:05; [31]): ≥ 20 µM
- Kd (HLA-B*58:01 [11]; [31]): ≥ 20 µM
- Kd (HLA-A*26:01 [12]; [31]): ≥ 20 µM
- Kd (HLA-A*31:01; [31]): ≥ 20 µM
- Kd (HLA-A*24:03 [13]; [31]): ≥ 20 µM
- Kd (HLA-B*44:02; [31]): ≥ 20 µM
- Kd (HLA-A*69:01 [14]; [31]): ≥ 20 µM
- Kd (HLA-A*03:01 [15]; [31]): 0.392 µM

Sequence: EVNSFKAAL
- IC50 (HLA-B*07:02 [1]; [27]): ≥ 139 µM
- IC50 (HLA-B*08:01 [3]; [27]): ≥ 85.9 µM
- IC50 (HLA-A*02:01 [17]): ≥ 236 µM
- IC50 (HLA-A*24:02): 33.2 µM

Sequence: KWGKKIILF
- Kd (HLA-A*24:03 [18]; source organism: Bacillus anthracis str. A0488): 0.0003 µM

Sequence: YQQLREAAT
- IC50 (HLA-B*08:01 [3]; [27]): ≥ 183 µM
- IC50 (HLA-A*02:01 [17]): 29.7 µM

Sequence: KGPDKLQVY
- Kd (HLA-A*01:01 [5]; [32]): ≥ 20 µM
- Kd (HLA-A*11:01 [6]; [32]): ≥ 20 µM
- Kd (HLA-B*07:02 [7]; [32]): ≥ 20 µM
- Kd (HLA-B*40:01; [32]): ≥ 20 µM
- Kd (HLA-A*30:01; [32]): 12.3 µM
- Kd (HLA-B*15:01 [8]; [32]): 2.42 µM
- Kd (HLA-B*08:01 [9]; [32]): ≥ 20 µM
- Kd (HLA-A*02:01 [10]; [32]): ≥ 20 µM
- Kd (HLA-B*27:05; [32]): ≥ 20 µM
- Kd (HLA-B*58:01 [11]; [32]): ≥ 20 µM
- Kd (HLA-A*26:01 [12]; [32]): ≥ 20 µM
- Kd (HLA-A*31:01; [32]): ≥ 20 µM
- Kd (HLA-B*44:02; [32]): ≥ 20 µM
- Kd (HLA-A*69:01 [14]; [32]): ≥ 20 µM
- Kd (HLA-A*03:01 [15]; [32]): ≥ 20 µM

Sequence: RAFSLYMTL
- Kd (HLA-C*15:02; [33]): 0.466 µM
- Kd (HLA-A*24:03 [18]; [33]): 0.0586 µM

Sequence: VGHMMVIFR
- IC50 (HLA-A*11:01 [2]): 0.196 µM
- IC50 (HLA-B*15:01 [19]; [27]): ≥ 1340 µM
- IC50 (HLA-B*08:01 [3]; [27]): ≥ 185 µM
- IC50 (HLA-A*02:01 [17]): 3.68 µM
- IC50 (HLA-A*24:02): ≥ 271 µM
- IC50 (HLA-A*03:01 [4]; [27]): ≥ 218 µM

Sequence: ALIVAIWDK
- Kd (HLA-A*01:01 [5]; [34]): ≥ 20 µM
- Kd (HLA-A*11:01 [6]; [35]): 0.553 µM
- Kd (HLA-B*07:02 [7]; [34]): ≥ 20 µM
- Kd (HLA-B*40:01; [34]): ≥ 20 µM
- Kd (HLA-A*30:01; [35]): 8.54 µM
- Kd (HLA-B*15:01 [8]; [34]): ≥ 20 µM
- Kd (HLA-B*08:01 [9]; [34]): ≥ 20 µM
- Kd (HLA-A*02:01 [10]; [35]): ≥ 20 µM
- Kd (HLA-B*27:05; [34]): ≥ 20 µM
- Kd (HLA-B*58:01 [11]; [34]): ≥ 20 µM
- Kd (HLA-A*26:01 [12]; [34]): ≥ 20 µM
- Kd (HLA-A*31:01; [35]): 11.8 µM
- Kd (HLA-A*24:03 [13]; [34]): ≥ 20 µM
- Kd (HLA-B*44:02; [34]): ≥ 20 µM
- Kd (HLA-A*69:01 [14]; [34]): ≥ 20 µM
- Kd (HLA-A*03:01 [15]; [35]): 2.7 µM

Sequence: LAWQRTLKW
- Kd (HLA-B*58:01 [16]; [28]): 0.0083 µM
- Kd (HLA-B*51:01; [28]): ≥ 20 µM

Sequence: VSALRLFNY
- Kd (HLA-A*01:01 [20]): 0.787 µM
- Kd (HLA-B*15:01 [21]; [36]): 0.796 µM
- Kd (HLA-B*58:01 [16]; [36]): 1.02 µM
- Kd (HLA-A*03:01 [22]): ≥ 20 µM

Sequence: VLASGPGPF
- Kd (HLA-C*05:01; [37]): ≥ 20 µM
- Kd (HLA-B*07:02 [7]; [37]): 9.38 µM
- Kd (HLA-B*15:01 [8]; [37]): 0.0184 µM
- Kd (HLA-B*46:01 [23]): ≥ 20 µM

Sequence: VTDTALAYF
- Kd (HLA-C*05:01; source organism: Homo sapiens): 0.005 µM
- Kd (HLA-A*01:01 [5]; source organism: Homo sapiens): 0.0009 µM
- Kd (HLA-B*18:01): ≥ 20 µM
- Kd (HLA-B*15:01 [21]; source organism: Homo sapiens): ≥ 20 µM
- Kd (HLA-B*57:01): ≥ 20 µM
- Kd (HLA-A*26:01 [24]): ≥ 20 µM
- Kd (HLA-B*51:01; source organism: Homo sapiens): ≥ 20 µM
- Kd (HLA-A*69:01 [25]): ≥ 20 µM
- Kd (HLA-B*39:01; source organism: Homo sapiens): ≥ 20 µM
- Kd (HLA-B*46:01 [26]): ≥ 20 µM
- Kd (HLA-B*27:03): ≥ 20 µM

Sequence: IIAVARKHH
- IC50 (HLA-B*07:02 [1]; source organism: Variola virus): 59.7 µM
- IC50 (HLA-B*15:01 [19]; source organism: Variola virus): 27.2 µM
- IC50 (HLA-A*03:01 [4]; source organism: Variola virus): 27.7 µM

Sequence: MASENSSAM
- IC50 (HLA-B*07:02 [1]; [27]): 28.4 µM
- IC50 (HLA-B*15:01 [19]; [27]): 21.9 µM
- IC50 (HLA-A*02:01 [17]): 12.1 µM

Sequence: TAKVKNEVN
- IC50 (HLA-B*08:01 [3]; [27]): ≥ 365 µM

Sequence: VSSFQDILL
- Kd (HLA-B*58:01 [16]; source organism: Influenza A virus (A/X-31(H3N2))): 0.687 µM

Sequence: FINKLNGAM
- IC50 (HLA-B*15:01 [19]; [38]): 27.6 µM
- IC50 (HLA-B*08:01 [3]; [38]): ≥ 138 µM
